Measured values published in the supplement of paper PMC9112550, “Optimization of the antimicrobial peptide Bac7 by deep mutational scanning” (BMC Biology, 2022).

Test system: Escherichia coli TOP10
Assay: shrunken log2 fold change of peptide-encoding DNA abundance (4.5 h post-induction vs induction); higher = less antimicrobial activity (less host growth inhibition)
Details: time post-induction: 4.5 h; library: site-saturation at positions 5, 18, 19, 20
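Also: peptides expressed intracellularly from a pBAD plasmid library in pooled LB shake-flask culture, induced with 0.3% L-arabinose, DNA abundance read by NGS, three biological replicates, DESeq2 with apeglm shrinkage.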

| Sequence | shrunken log2 fold change |
| --- | --- |
| RRIRIRPPRLPRPRPRPLNGPRP | -0.0474 |
| RRIRGRPPRLPRPRPRPVNYPRP | 0.203 |
| RRIRTRPPRLPRPRPRPNNTPRP | -0.518 |
| RRIRKRPPRLPRPRPRPKGKPRP | 0.302 |
| RRIRVRPPRLPRPRPRPDWMPRP | -0.0942 |
| RRIRGRPPRLPRPRPRPHWKPRP | 0.184 |
| RRIRVRPPRLPRPRPRPCLMPRP | -0.178 |
| RRIRPRPPRLPRPRPRPGFQPRP | 0.215 |
| RRIRVRPPRLPRPRPRPKDDPRP | 0.0252 |
| RRIRDRPPRLPRPRPRPKPGPRP | 0.654 |
| RRIRNRPPRLPRPRPRPPGIPRP | -0.0351 |
| RRIRNRPPRLPRPRPRPVVYPRP | -0.228 |
| RRIRCRPPRLPRPRPRPLRWPRP | 0.613 |
| RRIRRRPPRLPRPRPRPCPSPRP | 0.0616 |
| RRIRQRPPRLPRPRPRPNKGPRP | -0.0896 |
| RRIRQRPPRLPRPRPRPWLGPRP | -0.0417 |
| RRIRFRPPRLPRPRPRPTIPPRP | -0.562 |
| RRIRQRPPRLPRPRPRPNHTPRP | -0.0975 |
| RRIRPRPPRLPRPRPRPDAHPRP | 0.209 |
| RRIRTRPPRLPRPRPRPARWPRP | 0.471 |
| RRIRKRPPRLPRPRPRPGCIPRP | 0.424 |
| RRIRRRPPRLPRPRPRPFGRPRP | 0.114 |
| RRIRVRPPRLPRPRPRPHYLPRP | 0.00696 |
| RRIRMRPPRLPRPRPRPCLTPRP | 0.000866 |
| RRIRMRPPRLPRPRPRPYLDPRP | 0.107 |

| Sequence | shrunken log2 fold change |
| --- | --- |
| RRIRARPPRLPRPRPRPAFWPRP | 0.673 |
| RRIRMRPPRLPRPRPRPTRWPRP | 2.21 |
| RRIRVRPPRLPRPRPRPNWWPRP | 0.175 |
| RRIRCRPPRLPRPRPRPYKYPRP | -0.551 |
| RRIRRRPPRLPRPRPRPHEQPRP | 0.0519 |
| RRIRLRPPRLPRPRPRPCFAPRP | 0.179 |
| RRIRLRPPRLPRPRPRPILLPRP | -0.235 |
| RRIRWRPPRLPRPRPRPSHLPRP | -0.517 |
| RRIRIRPPRLPRPRPRPWIKPRP | -0.0222 |
| RRIRPRPPRLPRPRPRPGRMPRP | 0.318 |
| RRIRYRPPRLPRPRPRPLFLPRP | -0.171 |
| RRIRQRPPRLPRPRPRPYTHPRP | -0.723 |
| RRIRPRPPRLPRPRPRPEEHPRP | -0.0242 |
| RRIRYRPPRLPRPRPRPYDNPRP | -0.0463 |
| RRIRERPPRLPRPRPRPQVNPRP | -0.129 |
| RRIRARPPRLPRPRPRPNMFPRP | -0.0712 |
| RRIRCRPPRLPRPRPRPSYKPRP | -0.572 |
| RRIRCRPPRLPRPRPRPSKKPRP | -0.0938 |
| RRIRTRPPRLPRPRPRPSLEPRP | -0.0452 |
| RRIRFRPPRLPRPRPRPGNFPRP | -0.133 |
| RRIRIRPPRLPRPRPRPNQSPRP | -0.812 |
| RRIRERPPRLPRPRPRPCKYPRP | 3.12 |
| RRIRWRPPRLPRPRPRPINGPRP | -0.0517 |
| RRIRIRPPRLPRPRPRPCLIPRP | -0.337 |
| RRIRDRPPRLPRPRPRPIRFPRP | -0.0156 |

| Sequence | shrunken log2 fold change |
| --- | --- |
| RRIRHRPPRLPRPRPRPTLYPRP | -0.362 |
| RRIRARPPRLPRPRPRPMRIPRP | 0.155 |
| RRIRPRPPRLPRPRPRPAMYPRP | 0.0514 |
| RRIRLRPPRLPRPRPRPATYPRP | -0.212 |
| RRIRVRPPRLPRPRPRPPLCPRP | 0.338 |
| RRIRLRPPRLPRPRPRPRKEPRP | 0.325 |
| RRIRYRPPRLPRPRPRPIQHPRP | -0.89 |
| RRIRTRPPRLPRPRPRPFHPPRP | -0.335 |
| RRIRARPPRLPRPRPRPTTCPRP | 0.0733 |
| RRIRFRPPRLPRPRPRPDCLPRP | -0.0266 |
| RRIRTRPPRLPRPRPRPWTLPRP | -0.0728 |
| RRIRDRPPRLPRPRPRPDSMPRP | 0.00619 |
| RRIRPRPPRLPRPRPRPFLKPRP | -0.159 |
| RRIRQRPPRLPRPRPRPTSIPRP | -0.18 |
| RRIRKRPPRLPRPRPRPDALPRP | 0.132 |
| RRIRCRPPRLPRPRPRPWKIPRP | -0.268 |
| RRIRDRPPRLPRPRPRPPFIPRP | -0.533 |
| RRIRDRPPRLPRPRPRPWRAPRP | 0.132 |
| RRIRKRPPRLPRPRPRPYQEPRP | 0.0431 |
| RRIRIRPPRLPRPRPRPHLFPRP | -0.359 |
| RRIRMRPPRLPRPRPRPFEHPRP | -0.327 |
| RRIRERPPRLPRPRPRPMIHPRP | -0.65 |
| RRIRNRPPRLPRPRPRPEQHPRP | 0.0592 |
| RRIRLRPPRLPRPRPRPVLHPRP | -0.024 |
| RRIRQRPPRLPRPRPRPGVPPRP | 0.154 |

| Sequence | shrunken log2 fold change |
| --- | --- |
| RRIRKRPPRLPRPRPRPDSCPRP | -0.0303 |
| RRIRCRPPRLPRPRPRPPNYPRP | -0.376 |
| RRIRNRPPRLPRPRPRPVNGPRP | -0.372 |
| RRIRMRPPRLPRPRPRPVTGPRP | -0.00102 |
| RRIRYRPPRLPRPRPRPYAKPRP | -1.76 |
| RRIRGRPPRLPRPRPRPQQPPRP | 0.423 |
| RRIRFRPPRLPRPRPRPWCDPRP | -0.329 |
| RRIRLRPPRLPRPRPRPRYMPRP | -0.982 |
| RRIRMRPPRLPRPRPRPPIHPRP | 0.166 |
| RRIRSRPPRLPRPRPRPGPAPRP | 0.682 |
| RRIRERPPRLPRPRPRPKNPPRP | -0.503 |
| RRIRDRPPRLPRPRPRPPDQPRP | 0.72 |
| RRIRWRPPRLPRPRPRPCQQPRP | -0.219 |
| RRIRSRPPRLPRPRPRPGNRPRP | -0.00644 |
| RRIRIRPPRLPRPRPRPHQNPRP | -0.165 |
| RRIRERPPRLPRPRPRPHSPPRP | -0.372 |
| RRIRERPPRLPRPRPRPFSWPRP | 0.0616 |
| RRIRMRPPRLPRPRPRPCVHPRP | 0.0648 |
| RRIRCRPPRLPRPRPRPRPQPRP | 0.776 |
| RRIRKRPPRLPRPRPRPRTPPRP | 0.714 |
| RRIRNRPPRLPRPRPRPPHIPRP | -0.311 |
| RRIRVRPPRLPRPRPRPAKRPRP | 0.615 |
| RRIRGRPPRLPRPRPRPKVWPRP | 0.665 |
| RRIRHRPPRLPRPRPRPIAWPRP | 0.0843 |
| RRIRKRPPRLPRPRPRPCYGPRP | -0.237 |

| Sequence | shrunken log2 fold change |
| --- | --- |
| RRIRWRPPRLPRPRPRPPYYPRP | -0.183 |
| RRIRSRPPRLPRPRPRPDWDPRP | 0.157 |
| RRIRGRPPRLPRPRPRPHIDPRP | 0.301 |
| RRIRNRPPRLPRPRPRPHTEPRP | 0.0434 |
| RRIRKRPPRLPRPRPRPWIKPRP | -0.00314 |
| RRIRIRPPRLPRPRPRPCFWPRP | -0.22 |
| RRIRMRPPRLPRPRPRPVHDPRP | 0.0188 |
| RRIRYRPPRLPRPRPRPMRFPRP | 0.0781 |
| RRIRKRPPRLPRPRPRPACCPRP | 0.192 |
| RRIRERPPRLPRPRPRPTFHPRP | -0.0533 |
| RRIRYRPPRLPRPRPRPIREPRP | -0.271 |
| RRIRIRPPRLPRPRPRPCRFPRP | -0.0104 |
| RRIRSRPPRLPRPRPRPKWFPRP | -0.0561 |
| RRIRMRPPRLPRPRPRPQDYPRP | -0.0945 |
| RRIRQRPPRLPRPRPRPSWPPRP | -0.0496 |
| RRIRCRPPRLPRPRPRPYMMPRP | -0.293 |
| RRIRERPPRLPRPRPRPDEFPRP | 0.0332 |
| RRIRPRPPRLPRPRPRPVGIPRP | 0.0618 |
| RRIRMRPPRLPRPRPRPPKMPRP | 0.477 |
| RRIRYRPPRLPRPRPRPVAKPRP | -0.128 |
| RRIRRRPPRLPRPRPRPHPLPRP | 0.211 |
| RRIRSRPPRLPRPRPRPPWPPRP | 0.51 |
| RRIRKRPPRLPRPRPRPWKCPRP | -0.0018 |
| RRIRFRPPRLPRPRPRPNCYPRP | -0.435 |
| RRIRWRPPRLPRPRPRPMHWPRP | 0.194 |
